Reference: patent US20190134153A1, “IMMUNOMODULATORY EFFECT OF INHALED KINASE INHIBITOR PEPTIDES IN LUNG” (MOERAE MATRIX, INC., priority 2017, published 2019)

Columns and labels:
Test in all cases: Kinase Profiling Assay
Type in all cases: biochemical
Conditions in all cases: 100 μM
[1] = biological target: T1, TBK1(h) (Homo sapiens, UniProt Q9UHD2)
T1 sequence (Q9UHD2 1-729): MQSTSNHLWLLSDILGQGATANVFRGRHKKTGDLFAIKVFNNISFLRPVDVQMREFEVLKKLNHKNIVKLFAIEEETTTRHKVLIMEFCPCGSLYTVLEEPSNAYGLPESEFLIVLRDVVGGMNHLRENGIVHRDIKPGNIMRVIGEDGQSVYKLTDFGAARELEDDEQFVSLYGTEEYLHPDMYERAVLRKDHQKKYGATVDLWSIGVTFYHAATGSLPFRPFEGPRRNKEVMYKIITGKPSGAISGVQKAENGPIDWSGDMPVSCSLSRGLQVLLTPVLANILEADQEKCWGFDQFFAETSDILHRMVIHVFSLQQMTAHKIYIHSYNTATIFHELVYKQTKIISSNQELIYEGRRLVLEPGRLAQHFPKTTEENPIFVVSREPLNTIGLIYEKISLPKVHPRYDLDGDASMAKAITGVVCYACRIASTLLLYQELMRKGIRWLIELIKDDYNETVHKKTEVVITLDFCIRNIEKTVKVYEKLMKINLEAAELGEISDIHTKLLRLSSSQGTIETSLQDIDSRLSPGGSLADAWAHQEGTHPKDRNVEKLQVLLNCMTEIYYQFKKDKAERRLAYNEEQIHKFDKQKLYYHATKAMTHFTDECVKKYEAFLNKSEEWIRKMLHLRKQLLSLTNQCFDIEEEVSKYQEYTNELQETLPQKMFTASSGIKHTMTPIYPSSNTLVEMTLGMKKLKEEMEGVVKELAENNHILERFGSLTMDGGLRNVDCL

[2] = biological target: SAPK2b(h) (Homo sapiens, UniProt Q15759)
[3] = biological target: Met(M1268T)(h) (Homo sapiens, UniProt P08581, M1250T)
[4] = biological target: T2, EphB1(h) (Homo sapiens, UniProt P54762)
T2 sequence (P54762 18-984): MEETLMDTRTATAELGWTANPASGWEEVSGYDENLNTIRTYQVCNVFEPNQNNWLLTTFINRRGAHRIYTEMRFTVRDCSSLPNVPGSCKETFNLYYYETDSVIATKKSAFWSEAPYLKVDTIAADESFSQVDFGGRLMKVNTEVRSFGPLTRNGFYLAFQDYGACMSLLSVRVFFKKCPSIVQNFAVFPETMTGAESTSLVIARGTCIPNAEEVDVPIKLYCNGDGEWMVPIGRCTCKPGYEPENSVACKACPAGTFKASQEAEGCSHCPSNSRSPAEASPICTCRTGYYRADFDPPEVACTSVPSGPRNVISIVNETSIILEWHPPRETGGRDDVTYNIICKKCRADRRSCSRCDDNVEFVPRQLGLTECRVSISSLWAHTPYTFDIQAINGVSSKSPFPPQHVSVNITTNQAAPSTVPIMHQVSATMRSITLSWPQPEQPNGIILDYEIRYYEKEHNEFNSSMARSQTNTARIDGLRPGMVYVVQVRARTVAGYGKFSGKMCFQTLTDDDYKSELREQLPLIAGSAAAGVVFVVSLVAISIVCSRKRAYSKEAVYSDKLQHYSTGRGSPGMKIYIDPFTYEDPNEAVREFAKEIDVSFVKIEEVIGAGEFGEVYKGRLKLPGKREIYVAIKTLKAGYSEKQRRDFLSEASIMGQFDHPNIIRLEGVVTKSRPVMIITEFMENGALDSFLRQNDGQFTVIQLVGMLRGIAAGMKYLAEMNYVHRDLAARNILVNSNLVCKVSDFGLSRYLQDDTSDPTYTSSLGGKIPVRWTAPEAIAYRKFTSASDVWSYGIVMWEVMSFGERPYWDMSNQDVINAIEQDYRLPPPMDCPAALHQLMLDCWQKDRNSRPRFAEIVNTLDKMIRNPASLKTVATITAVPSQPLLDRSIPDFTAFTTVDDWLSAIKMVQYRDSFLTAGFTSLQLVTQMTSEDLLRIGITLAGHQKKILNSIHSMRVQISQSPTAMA

[5] = biological target: T3, Txk(h) (Homo sapiens, UniProt P42681)
T3 sequence (P42681 1-527): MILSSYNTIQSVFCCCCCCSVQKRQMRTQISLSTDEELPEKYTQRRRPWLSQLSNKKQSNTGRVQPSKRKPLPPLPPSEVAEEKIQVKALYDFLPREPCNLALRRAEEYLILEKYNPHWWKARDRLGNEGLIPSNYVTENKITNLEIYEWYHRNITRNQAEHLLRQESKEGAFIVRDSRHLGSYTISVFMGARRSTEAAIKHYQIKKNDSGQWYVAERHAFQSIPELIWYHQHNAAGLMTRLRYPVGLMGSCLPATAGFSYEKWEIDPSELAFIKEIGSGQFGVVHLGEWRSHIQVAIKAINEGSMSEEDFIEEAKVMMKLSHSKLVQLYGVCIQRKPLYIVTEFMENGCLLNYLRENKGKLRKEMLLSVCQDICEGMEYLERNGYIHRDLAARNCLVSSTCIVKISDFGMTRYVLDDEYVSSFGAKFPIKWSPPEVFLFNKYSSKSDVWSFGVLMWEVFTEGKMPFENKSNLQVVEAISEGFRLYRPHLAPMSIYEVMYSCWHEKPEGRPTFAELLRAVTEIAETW

[6] = biological target: mTOR(h) (Homo sapiens, UniProt P42345)

Chain of SAPK2b(h) (Q15759 whole entry): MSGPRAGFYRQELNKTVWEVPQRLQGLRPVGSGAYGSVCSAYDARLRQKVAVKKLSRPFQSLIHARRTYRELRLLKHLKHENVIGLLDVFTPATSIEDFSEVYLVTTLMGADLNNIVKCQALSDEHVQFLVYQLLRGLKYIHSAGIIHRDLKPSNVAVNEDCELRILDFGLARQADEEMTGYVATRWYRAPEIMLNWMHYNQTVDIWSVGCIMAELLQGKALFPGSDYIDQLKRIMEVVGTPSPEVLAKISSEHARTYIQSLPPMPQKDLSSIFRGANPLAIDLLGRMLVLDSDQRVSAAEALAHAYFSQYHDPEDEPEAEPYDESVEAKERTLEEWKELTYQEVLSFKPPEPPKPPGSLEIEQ

Sequence | % activity [1] | % activity [2] | % activity [3] | % activity [4] | % activity [5] | % activity [6]
FAKLAARLYRKALARQLGVAA [MMI-0300] | 37% | 81% | 255% | 44% | 48% | 91%
KAFAKLAARLYRKALARQLGVAA [MMI-0400] | 39% | 82% | 265% | 58% | 37% | 93%
HRRIKAWLKKIKALARQLGVAA [MMI-0500] | 16% | 42% | 239% | 37% | 10% | 135%
YARAAARQARAKALNRQLGVA [MMI-0200] | 98% | 95% | 143% | 95% | 98% | 110%
